Substrate: CCCC(=O)Oc1ccc([N+](=O)[O-])cc1
Assay: purified protein
Assay type: biochemical, Moesziomyces antarcticus
Conditions: free enzyme, 0.1 to 1.2 mmol/L pNPB, 50 mmol/L phosphate pH 7.0, 0.004% Triton X-100, 30 °C

B1: lipase B from Candida antarctica (Lipozyme CALB-L) (Moesziomyces antarcticus) (protein)
chain: LPSGSDPAFSQPKSVLDAGLTCQGASPSSVSKPILLVPGTGTTGPQSFDSNWIPLSTQLGYTPCWISPPPFMLNDTQVNTEYMVNAITALYAGSGNNKLPVLTWSQGGLVAQWGLTFFPSIRSKVDRLMAFAPDYKGTVLAGPLDALAVSAPSVWQQTTGSALTTALRNAGGLTQIVPTTNLYSATDEIVQPQVSNSPLDSSYLFNGKNVQAQAVCGPLFVIDHAGSLTSQFSYVVGRSALRSTTGQARSADYGITDCNPLPANDLTPEQKVAAAALLAPAAAAIVAGPKQNCEPDLMPYARPFAVGKRTCSGIVTP
notes: commercial recombinant enzyme (Lipozyme CALB-L, Sigma-Aldrich), used without further purification; free form
B1 showed a Km of 160 ± 10 µM.

— PMC8395317, “The Simple Method of Preparation of Highly Carboxylated Bacterial Cellulose with Ni- and Mg-Ferrite-Based Versatile Magnetic Carrier for Enzyme Immobilization” (International Journal of Molecular Sciences, 2021)
